Assay results as given in a protein production outcome set (Wang et al. 2014).

Assay: label from the status in PepcDB records

Sequence | protein production
MKNKKNNYDLMYFIPLVFLIYPIGGILYYHYPFWTLFFTLAFVGAYLYSVIIRGESKYHMIAWSTMLTYIFYMTIFINSGFIWYIYFLSNLLVYRFRDKLKSFRFISFACTLATVVFLCFFKASDFGDRIMFLIVPIFCIGYMWIAIENRNSEEQREKIAEQNQYINILSAENERNRIGRDLHDSLGHTFAMMTLKTELALKLLEKRNYDKVQKELSELNHISHQSMSEVRQIVSNLKYRTVVEEIDELYRLFQLSNIKLTVVNKLETSQLSPVTQSTITMILKELSNNIVKHAEADSVELSLVRQGATINIEMIDNGCGFTNLDGDELHSIQERLTIVEGTLTILSRSKPTHIQVVLKEV | failed
MKNLHRCKKIFLRVFSRSARRQREPLQDAVLDLHQGAFGGFAPCSAPVQLKRKRPMTKPETTAPTAKAVLPIGLLIAVLAMVAVLLLPLPADLPVAGHRMLAILAFAVVVWISEAVSYEASAIMITALMAFLIGTAPTLQDPSQLYGSSAAIGLALTGFSNSALALVAGALFIAAAMTHTGLDRRIALVTLTRVGTSTRRILIGAIAVTILLSLLVPSATARSACVVPIMMGVIAAFGVDKRSNIAAGLMIVVAQGTSIWNVGIQTAAAQNLLTVGFMDKMLGQRVAWLDWLIAGAPWAVIMSLVLLWLVLKLLPPETDSIPGGKEAVAQSLADIGPMTGPQKRLLTVSVLLLLAWSTEGKLHPFDTTTTTYAGLVILLLPRIGIMTWKDVQSRIPWGTVIVFGVGISLGSALLSTQAGQWLGSQVVAHTGLDQVGPLAVFAILAAFLILIHLGFASATALTSALLPILIAVLQTLPGEFSRLGMTMLLGFVVSYGFILPINAPQNMVCLGTETFNARQFAKVGLLVTLIGYLLMLVFAMTWWKWLGWM | failed
MKNMVIVLTGVTVVAGALLGYVNELTKEPIAQANAKALSDAIAIVVPGFDNNPAEAPETIELEGVTYKIYKATKGGEFIGAAVESSANGFGGALNVLVGFDKEGNIIDYSLLSHAETPGLGSKAADWFKKGGKGDITGMNPGQKALVVNKDGGQIDAITASTITTRAFLKAVNNAYAAYSGQNVDGSSGATQQVSETAADDPKAAKAQCEGTQDCCGQACDSAACKAACGGKCDPANCDKADCKKAECPKQDCKNKK | failed
MKNNKKGLWGIIVAVGLFLLSKLKWVFAIFKLAKFSTVFSMFLSLGAYAVLYGWKFGVALIYLLFVHEMGHLWAAKRKGIPTSPAIFIPFMGALIGMKEMPKNAKDEAYIAYMGPLFGLLSFLPAIPLYIMTKEPFWALVILLGSMINFFNLIPVSPLDGGRIISVVSTKIWGAGLILLLGYSIYFKSILGGFIVIIGCMELYRVIKRDEPIKELGHKIYGMKEYVTRLEEELKETGAVHRTIYVMHHEMNALRQREREKELQIGELKKMEVLEYLLPKFEPLDYVPYEDEKDEYTIHIREAFEASERKLNEWKTEKEQQENYYKVDAKTKWTVFACYIGLMVILGYTAYEGYIVLQEHLPTRNV | failed
MKNPAEIDVADQQRLESMAVGGLIGFRTLLYKEVLRFWKVSFQTVAAPVLTAVLYLLIFGHVLEDRVRVYDQISYTAFLVPGLVMMSVLQNAFANSSSSLIQSKITGNLVFILLPPLSHWEMFGAYVVASIIRGLCVGLGVLLVTAWFANLHFAHIGWILVFGLMGAGILGTLGLIAGIWAEKFDQLAAFQNFLIMPATFLSGVFYSIHSLPAFWQAVSHANPFFYMIDGFRYGFFGVSDVPPLQSLAVVVVAFVVLAALALRLLRNGYKLRY | failed
MKNQFVKCISQLLFLLLIIGVLPVYAQKKSKEKIYRLPDDLETLAGDPALLKKPEGLTVAAYAFPNYHASALHNKIYSQGWTEYNLIRSARPWFEGHQQPRTPLLGELDESKPSTWETYNKLCKQSGIDVLIWDWYWYDGKPCLHEALENGFLEASNTKDVKFACMWTNHPWYVLYPTKRTDGSNAYPPSFDAPDFSKEECWKSLSYMISRYCHLENYWRIDDKPVICIWDARRLESKLGIAGVKQLFAELTDYAKKLGHKGLHFHVTGFSCGNMKEEGYDTVGSYNPMDWIAGRFQPKEIELPDYGTVAADVAFKLWDEHHGQFDIPYVPAVAPGWDSTPRYIAPANRPAKADRSQWPGCTIFKNENPASFKAFVQSSFVYLNKHPEVPRILTIACFNEWSEGHYLLPDNRFGYGMLDALGEALGKEGNHEKHGKLEHHHHHH | not failed
MKNQSPVPSYEGNVFMIDARDLSIAWSEDSNHWTWLPLPNQNSNTILSSESVMEIAFLKSASWLDVAGKFDTRYLTPRTRYEVVFVVKLEYTFEWETLVKLKLDLPNTWEKPQEQSVDMFDYISDQWLDIPVGEFTTSKKNVGEISFAMYEHECQLWKSGLFVKGVTIRPKY | failed
MKPALVVVDMVNEFIHGRLATPEAMKTVGPARKVIETFRRSGLPVVYVNDSHYPDDPEIRIWGRHSMKGDDGSEVIDEIRPSAGDYVLEKHAYSGFYGTNLDMILRANGIDTVVLIGLDADICVRHTAADALYRNYRIIVVEDAVAARIDPNWKDYFTRVYGATVKRSDEIEGMLQEDQIET | not failed
MKPIQLPLSVRLRDDATFANYYPGANAAALGYVERLCEAEAGWAESLIYLWGHDGVGRSHLLQAACLRFEQFEERTIYLPMADLVQYGPEIFDDLEQCELVCIDDLDVLVGKREWEEGLFHLFNRLRDTGRRLLLAASKSPRELQVKLPDLKSRLTMALIFQLHGLSDEDKLRALQLRASRRGLHLTDEVGRFILNRGSRSMNSLFDLLEQLDRASLQAQRKLTIPFLKETLGWLEHHHHHH | not failed
MKPLRKIRLGIVGCGIAARELHLPALKNLSHLFEITAVTSRTRSHAEEFAKMVGNPAVFDSYEELLESGLVDAVDLTLPVELNLPFIEKALRKGVHVICEKPISTDVETGKKVVELSEKSEKTVYIAENFRHVPAFWKAKELVESGAIGDPVFMNWQIWVGMDENNKYVHTDWRKKPKHVGGFLSDGGVHHAAAMRLILGEIEWISAVAKDLSPLLGGMDFLSSIFEFENGTVGNYTISYSLKGNERFEITGTKGKISISWDKIVLNEEEMKVPQENSYQKEFEDFYQVVAEGKPNDLGSPVQALKDLAFIEACVRSAGNKVFVSSLL | not failed
MKPMEAAMGLIRFCLLFLALATPVNAAKLFLTTEVYPPYNLQASDGSVHGVYFDQLKIVLQDTDTDYEVAVMPWARAIALATTQAMHCVFATARTPEREKLFKWVAPIHTDRNILVARREANIEASSLEDARRYRVGTQRGDYTEALLEKLGFPQVDVGADFEITLNKLKLGRIDLMPMSESTLKSLPANSFKEVITLSRQQLGLACNKTVPDQIIAKLQARLDKLIADGTQQQIFDRYSLVSP | failed
MKPSLIYMYNINKKQIIISLLSFIFVVAVAFVSLGNYIKQESGEVRQTIIVAFVILVYITFLAMIVIQAVSAFGKMTESTLFRLTSISGKKIVLAILLYAVIYLLIFELIGSIFLYGISMKIIKGTELYEVLFTQSVFNPLKHLFSTMLYVFNLSSILLVLLFSVASVKVFSLKKKKLKYPMVFFLFLLVTKLLGTIYGMLGGLAPAAPLIKKLVYIDESSGADVFLYPEKLMNLYSLSFSIGIFILLVYITGRIIDKKLEV | failed
MKPTLFVLAAGMGSRYGSLKQLDGIGPGGDTIMDYSVYDAIRAGFGRLVFVIRHSFEKEFREKILTKYEGRIPVELVFQELDRLPEGFSCPEGREKPWGTNHAVLMGRDAIREPFAVINADDFYGRNGFEVLARKLMTLEGKQGEYCMVGYRVGNTLSESGGVSRGVCQVDEKHLLTGVVERTGIERTDGTISFRDETGKICTLAEDAPVSMNMWGFTPDYFDYSEELFINFLNAHGQEPKSEFFIPFVVNDLIRSGRASVEVLDTTARWFGVTYSDDRPGVVAKLRELTEAGEYPTKLF | not failed
MKPTLFVLAAGMGSRYGSLKQLDGIGPGGDTIMDYSVYDAIRAGFGRLVFVIRHSFEKEFREKILTKYEGRIPVELVFQELDRLPEGFSCPEGREKPWGTNHAVLMGRDAIREPFAVINADDFYGRNGFEVLARKLMTLEGKQGEYCMVGYRVGNTLSESGGVSRGVCQVDEKHLLTGVVERTGIERTDGTISFRDETGKICTLAEDAPVSMNMWGFTPDYFDYSEELFINFLNAHGQEPKSEFFIPFVVNDLIRSGRASVEVLDTTARWFGVTYSDDRPGVVAKLRELTEAGEYPTKLFLEHHHHHH | not failed
MKQAIGFIDSGVGGLTVVREVLKQLPHEQVYYLGDTARCPYGPRDKEEVAKFTWEMTNFLVDRGIKMLVIACNTATAAALYDIREKLDIPVIGVIQPGSRAALKATRNNKIGVLGTLGTVESMAYPTALKGLNRRVEVDSLACPKFVSVVESGEYKSAIAKKVVAESLLPLKSTKIDTVILGCTHYPLLKPIIENFMGDGVAVINSGEETASEVSALLDYHNLLDATDEEIEHRFFTTGSTQIFKDIAKDWLNMPDMTVEHIKLGK | not failed
MKQFVVISGKGGTGKTSVTAGLAAVGKDMVLADCDVDAADLHLVLAPEIRERHDFISGVVASIEPEACISCGLCTTHCRYGAIPQGYAPQVAPEHCEGCGVCAHVCPTGAARLSDRRCGEWYVSDTRFGPMVHAALGIGEENSGKLVSTVRTRARELAEARDASVVLIDGSPGVGCPVIASLAGADAALAVTEPTVSALHDLERVHALARHFDVRMAVLLNKADIHPGMAERIIGYCTTHDLPLVGRFGFSPLFVQAQLEGRTLPEQDSGEWRQRFNGVWNQLLALVLEHHHHHH | failed
MKQKDFFLYAVMSVFLGMQGCASSSDIKQNVGTSEIAHTKQTLQIAGLKHCNNEGNDSIHLNPDEPLTIIVHGCFSSAGRFETLADVYGLYDQQAICFEYDDRKSLEDTSGELVAALNQLSTQNPNQDLHVIGHSQGGLVARRALTSEREDQQTVTAKKVQLTTVSSPFNGIEISSHCGITPLRILSLGIVDLICYAVTGEKYQQIPPNADFIEQPGDLVASVSQHLVIKTDERNSCRKENDKGECIEDDYVFSVNEQSNNQVDDGVNTDLVTVKAGHVEIVGNGESVPTDLINILKQKEVLVDKSGVDEQKQGYLINQLYFD | failed
MKQPFERILREICFMVKVEGRKVLRDFGITPAQFDILQKIYFEGPKRPGELSVLLGVAKSTVTGLVKRLEADGYLTRTPDPADRRAYFLVITRKGEEVIEKVIERRENFIEKITSDLGKEKSSKILDYLKELKGVMERNFSKQ | not failed
MKQQLESFIETTKPSALVADMFFPWATESAEKLGVPRLVFHGTSFFSLCCSYNMRIHKPHKKVATSSTPFVIPGLPGDIVITEDQANVAKEETPMGKFMKEVRESETNSFGVLVNSFYELESAYADFYRSFVAKRAWHIGPLSLSNRELGEKARRGKKANIDEQECLKWLDSKTPGSVVYLSFGSGTNFTNDQLLEIAFGLEGSGQSFIWVVRKNENQGDNEEWLPEGFKERTTGKGLIIPGWAPQVLILDHKAIGGFVTHCGWNSAIEGIAAGLPMVTWPMGAEQFYNEKLLTKVLRIGVNVGATELVKKGKLISRAQVEKAVREVIGGEKAEERRLWAKKLGEMAKAAVEEGGSSYNDVNKFMEELNGRK | failed
MKQRTLPAAFLLALSIASLAGCASPTVITLNDGREIQAVDTPKYDEDSGFYEFKQLDGKQTRINKDQVRTVKDLLEHHHHHH | failed
MKQTPPLISFITICYNGLDDTCMLIESLRDTISSVSYEIIVVDNASRQDEASLIQERYPFVRTLRSEKNLGFSGGNNLGIQIAQGKYLFLINNDTYLTEDGLPALIERLESDPRIGAVSPKIRFAFPPQSIQFAGYTKLSRYTMRNKALGMGCPDDGTFDTPRPSAYLHGAALMLKREVIWKAGLMPEIYFLYYEELDWCTSMTRAGYQLWYEPRCTIFHKESQSTGRQSPLRTFYMMRNRMLYAWRNLPGMERCLAIAYQMLIVAPKDSLCFVLKGEPKLAKAVWHGVKGFWKLCLEHHHHHH | not failed
MKRADFCIIGLGRFGMQVAHSLKENNFTLVLIDNDQHKTNTAAQEFDHVVCCDGSNLTALAELQLEEFSAVIVGVTNIEASIMICANLRELGQKNIIARAKNEVHNRVLRTMGIREALIPEKIVGKNLVIRLIHGMETEIINLGNDILFVRAPVNNKKLFNRTLGEINIREHTNANLISIMRNGKDVVFPLGPNTQIQPGDVITAVCQLSGVNQYLRYINPNDKNKYKASE | failed
